Assay results taken from the Human Domainome abundance scans (Beltran et al. 2025).
± gives the uncertainty stated by the source.

B1: Homeobox protein SIX3, residues 212 to 262; numbered along this chain, O95343 (parent)
chain: CFKERTRSLLREWYLQDPYPNPSKKRELAQATGLTPTQVGNWFKNRRQRDR

Variants of: B1
Assay: abundance fitness (aPCA) (normalised: wild type 0, dead -1); higher = more abundant; growth selection in yeast, the domain comes from the species named
Details: Homo sapiens

CFKERTRSLLREWYLQDPYPNPSKKDELAQATGLTPTQVGNWFKNRRQRDR [R26D] and CFKERTRSLLREWYLQDPYPNPSKKYELAQATGLTPTQVGNWFKNRRQRDR [R26Y] are within error of each other in abundance fitness: -0.667 ± 0.32 for the first, -0.286 ± 0.13 for the second.

Going from CFKERTRSLLREWYLQDPYPNPSKKHELAQATGLTPTQVGNWFKNRRQRDR [R26H] to CFKERTRSLLREWYLQDPYPNPSKKGELAQATGLTPTQVGNWFKNRRQRDR [R26G], the abundance fitness falls from 0.047 ± 0.084 to -0.209 ± 0.067.

Going from CFKERTRSLLREWYLQDPYPNPSKKQELAQATGLTPTQVGNWFKNRRQRDR [R26Q] to CFKERTRSLLREWYLQDPYPNPSKKFELAQATGLTPTQVGNWFKNRRQRDR [R26F], the abundance fitness falls from 0.091 ± 0.09 to -0.228 ± 0.065.

Going from CFKERTRSLLREWYLQDPYPNPSKKKELAQATGLTPTQVGNWFKNRRQRDR [R26K] to CFKERTRSLLREWYLQDPYPNPSKKNELAQATGLTPTQVGNWFKNRRQRDR [R26N], the abundance fitness rises from -0.01 ± 0.085 to 0.385 ± 0.1.

CFKERTRSLLREWYLQDPYPNPSKKLELAQATGLTPTQVGNWFKNRRQRDR [R26L] and CFKERTRSLLREWYLQDPYPNPSKKAELAQATGLTPTQVGNWFKNRRQRDR [R26A] are within error of each other in abundance fitness: 0.158 ± 0.064 for the first, 0.181 ± 0.056 for the second.

CFKERTRSLLREWYLQDPYPNPSKKCELAQATGLTPTQVGNWFKNRRQRDR [R26C] and CFKERTRSLLREWYLQDPYPNPSKKTELAQATGLTPTQVGNWFKNRRQRDR [R26T] are within error of each other in abundance fitness: -0.044 ± 0.052 for the first, -0.091 ± 0.092 for the second.

CFKERTRSLLREWYLQDPYPNPSKKMELAQATGLTPTQVGNWFKNRRQRDR [R26M] and CFKERTRSLLREWYLQDPYPNPSKKWELAQATGLTPTQVGNWFKNRRQRDR [R26W] are within error of each other in abundance fitness: -0.14 ± 0.11 for the first, -0.266 ± 0.066 for the second.

First: CFKERTRSLLREWYLQDPYPNPSKKSELAQATGLTPTQVGNWFKNRRQRDR [R26S]
Second: CFKERTRSLLREWYLQDPYPNPSKKPELAQATGLTPTQVGNWFKNRRQRDR [R26P]
The abundance fitness of the first is higher: -0.045 ± 0.042 for the first, -0.889 ± 0.1 for the second.

CFKERTRSLLREWYLQDPYPNPSKKEELAQATGLTPTQVGNWFKNRRQRDR [R26E] and CFKERTRSLLREWYLQDPYPNPSKKVELAQATGLTPTQVGNWFKNRRQRDR [R26V] are within error of each other in abundance fitness: -0.002 ± 0.058 for the first, 0.047 ± 0.049 for the second.

CFKERTRSLLREWYLQDPYPNPSKNRELAQATGLTPTQVGNWFKNRRQRDR [K25N] and CFKERTRSLLREWYLQDPYPNPSKWRELAQATGLTPTQVGNWFKNRRQRDR [K25W] are within error of each other in abundance fitness: -0.344 ± 0.25 for the first, -0.334 ± 0.056 for the second.

CFKERTRSLLREWYLQDPYPNPSKQRELAQATGLTPTQVGNWFKNRRQRDR [K25Q] and CFKERTRSLLREWYLQDPYPNPSKCRELAQATGLTPTQVGNWFKNRRQRDR [K25C] are within error of each other in abundance fitness: -0.109 ± 0.11 for the first, -0.103 ± 0.097 for the second.

First: CFKERTRSLLREWYLQDPYPNPSKARELAQATGLTPTQVGNWFKNRRQRDR [K25A]
Second: CFKERTRSLLREWYLQDPYPNPSKLRELAQATGLTPTQVGNWFKNRRQRDR [K25L]
The abundance fitness of the first is lower: -0.326 ± 0.057 for the first, -0.061 ± 0.063 for the second.

Compared with CFKERTRSLLREWYLQDPYPNPSKGRELAQATGLTPTQVGNWFKNRRQRDR [K25G], CFKERTRSLLREWYLQDPYPNPSKDRELAQATGLTPTQVGNWFKNRRQRDR [K25D] is lower in abundance fitness: -0.579 ± 0.1 for the first, -0.753 ± 0.062 for the second.

Going from CFKERTRSLLREWYLQDPYPNPSKVRELAQATGLTPTQVGNWFKNRRQRDR [K25V] to CFKERTRSLLREWYLQDPYPNPSKYRELAQATGLTPTQVGNWFKNRRQRDR [K25Y], the abundance fitness falls from -0.019 ± 0.044 to -0.316 ± 0.1.

Going from CFKERTRSLLREWYLQDPYPNPSKPRELAQATGLTPTQVGNWFKNRRQRDR [K25P] to CFKERTRSLLREWYLQDPYPNPSKSRELAQATGLTPTQVGNWFKNRRQRDR [K25S], the abundance fitness rises from -0.84 ± 0.067 to -0.478 ± 0.085.

CFKERTRSLLREWYLQDPYPNPSKMRELAQATGLTPTQVGNWFKNRRQRDR [K25M] and CFKERTRSLLREWYLQDPYPNPSKTRELAQATGLTPTQVGNWFKNRRQRDR [K25T] are within error of each other in abundance fitness: 0.004 ± 0.09 for the first, 0.133 ± 0.062 for the second.

Going from CFKERTRSLLREWYLQDPYPNPSKERELAQATGLTPTQVGNWFKNRRQRDR [K25E] to CFKERTRSLLREWYLQDPYPNPSKRRELAQATGLTPTQVGNWFKNRRQRDR [K25R], the abundance fitness falls from 0.008 ± 0.079 to -0.177 ± 0.063.

CFKERTRSLLREWYLQDPYPNPSTKRELAQATGLTPTQVGNWFKNRRQRDR [K24T] and CFKERTRSLLREWYLQDPYPNPSSKRELAQATGLTPTQVGNWFKNRRQRDR [K24S] are within error of each other in abundance fitness: -0.097 ± 0.092 for the first, -0.193 ± 0.06 for the second.

First: CFKERTRSLLREWYLQDPYPNPSMKRELAQATGLTPTQVGNWFKNRRQRDR [K24M]
Second: CFKERTRSLLREWYLQDPYPNPSWKRELAQATGLTPTQVGNWFKNRRQRDR [K24W]
The abundance fitness of the first is higher: -0.246 ± 0.15 for the first, -0.896 ± 0.13 for the second.

Compared with CFKERTRSLLREWYLQDPYPNPSGKRELAQATGLTPTQVGNWFKNRRQRDR [K24G], CFKERTRSLLREWYLQDPYPNPSHKRELAQATGLTPTQVGNWFKNRRQRDR [K24H] is higher in abundance fitness: -0.417 ± 0.068 for the first, -0.219 ± 0.096 for the second.

Compared with CFKERTRSLLREWYLQDPYPNPSYKRELAQATGLTPTQVGNWFKNRRQRDR [K24Y], CFKERTRSLLREWYLQDPYPNPSEKRELAQATGLTPTQVGNWFKNRRQRDR [K24E] is higher in abundance fitness: -0.709 ± 0.2 for the first, -0.364 ± 0.092 for the second.

First: CFKERTRSLLREWYLQDPYPNPSPKRELAQATGLTPTQVGNWFKNRRQRDR [K24P]
Second: CFKERTRSLLREWYLQDPYPNPSRKRELAQATGLTPTQVGNWFKNRRQRDR [K24R]
The abundance fitness of the first is lower: -0.924 ± 0.14 for the first, -0.137 ± 0.047 for the second.

CFKERTRSLLREWYLQDPYPNPSVKRELAQATGLTPTQVGNWFKNRRQRDR [K24V] and CFKERTRSLLREWYLQDPYPNPSQKRELAQATGLTPTQVGNWFKNRRQRDR [K24Q] are within error of each other in abundance fitness: -0.101 ± 0.053 for the first, -0.112 ± 0.093 for the second.

Compared with CFKERTRSLLREWYLQDPYPNPSIKRELAQATGLTPTQVGNWFKNRRQRDR [K24I], CFKERTRSLLREWYLQDPYPNPSCKRELAQATGLTPTQVGNWFKNRRQRDR [K24C] is lower in abundance fitness: -0.072 ± 0.09 for the first, -0.399 ± 0.085 for the second.

Going from CFKERTRSLLREWYLQDPYPNPSLKRELAQATGLTPTQVGNWFKNRRQRDR [K24L] to CFKERTRSLLREWYLQDPYPNPSFKRELAQATGLTPTQVGNWFKNRRQRDR [K24F], the abundance fitness falls from -0.366 ± 0.084 to -0.672 ± 0.094.

CFKERTRSLLREWYLQDPYPNPSKKRELSQATGLTPTQVGNWFKNRRQRDR [A29S] showed an abundance fitness of -0.125 ± 0.084.
